In patent US5612040 one finds Cell Binding, % data, which are given here for 1 substance.

The target of this assay is baby hamster kidney (BHK) cells. Kind of assay: cell binding to BHK cells at a constant virus/cell ratio (1000:1).

“foot-and-mouth disease virus (FMDV) type A12, wild-type virus (VRGDF at amino acids 143-147 of VP1)”: the Cell Binding, % was 65%.
